Experimental findings from paper PMC10873556, “G-quadruplex DNA structure is a positive regulator of MYC transcription” are described below.

Data set [1] deals with T1, SP1 (human, UniProt P08047 1-785). Put plainly: BLI; 100 nM SP1; negligible binding; BLI: 25 mM HEPES pH 7.5, 100 mM KCl, 12.5 mM MgCl2, 20% glycerol, 0.1% Igepal CA-630, 0.01 mM Zn(OAc)2, 1 mM DTT, 3% BSA, temperature not stated; pull-down: oligos annealed in 10 mM Tris-HCl pH 7.4 with (G4) or without (ds) 100 mM KCl. Conditions: protein: recombinant.
T1 sequence (P08047 whole entry): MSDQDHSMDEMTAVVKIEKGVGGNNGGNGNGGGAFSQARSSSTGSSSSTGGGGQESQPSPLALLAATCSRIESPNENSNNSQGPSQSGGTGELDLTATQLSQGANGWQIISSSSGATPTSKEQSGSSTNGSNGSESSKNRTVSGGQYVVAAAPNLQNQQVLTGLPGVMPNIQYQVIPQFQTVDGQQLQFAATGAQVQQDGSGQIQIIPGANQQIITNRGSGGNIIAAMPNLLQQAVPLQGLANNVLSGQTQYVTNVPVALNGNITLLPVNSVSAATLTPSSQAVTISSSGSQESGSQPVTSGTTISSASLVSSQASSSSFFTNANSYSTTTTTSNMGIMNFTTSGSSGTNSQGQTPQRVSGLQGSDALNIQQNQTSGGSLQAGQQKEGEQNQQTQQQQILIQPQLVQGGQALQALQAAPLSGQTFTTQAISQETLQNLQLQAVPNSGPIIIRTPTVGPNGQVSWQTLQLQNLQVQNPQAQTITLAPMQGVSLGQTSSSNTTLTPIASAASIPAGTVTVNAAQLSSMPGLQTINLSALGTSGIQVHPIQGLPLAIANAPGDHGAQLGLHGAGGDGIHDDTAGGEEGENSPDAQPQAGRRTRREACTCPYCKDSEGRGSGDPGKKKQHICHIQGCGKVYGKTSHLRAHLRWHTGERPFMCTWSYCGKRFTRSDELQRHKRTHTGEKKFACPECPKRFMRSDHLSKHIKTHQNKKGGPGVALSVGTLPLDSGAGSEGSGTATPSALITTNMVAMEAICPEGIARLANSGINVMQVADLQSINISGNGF
Data set [2] deals with T1, SP1. The experiment in a line: BLI; 100 mM KCl, 12.5 mM MgCl2, 0.01 mM Zn(OAc)2; apparent, most abundant population, 2:1 heterogeneous ligand fit; BLI: 25 mM HEPES pH 7.5, 100 mM KCl, 12.5 mM MgCl2, 20% glycerol, 0.1% Igepal CA-630, 0.01 mM Zn(OAc)2, 1 mM DTT, 3% BSA, temperature not stated; pull-down: oligos annealed in 10 mM Tris-HCl pH 7.4 with (G4) or without (ds) 100 mM KCl. Conditions: protein: recombinant; intramolecular G4. (Biolayer interferometry detects binding as a change in optical thickness at a sensor tip.)

B1: MYC MUT ss (ssDNA)
DNA: TTTTTTAAGAGCGTTAAGAGCGTGAACAAGG
For B1, the binding result in data set [1] was “no binding”.

B2: MYC G4 ss (structured_DNA)
DNA: TTTTTGGGGAGGGTGGGGAGGGTGGGGAAGG
Turning to B2, the Kd in data set [2] is 5.6 nM.
